The supplement of paper PMC10567573

B1: APBB1IP (parent)
chain: SQVSMWDQRWQDHQPLLPITDVP

Variants of: B1
Assay: protein stability index of a GFP-peptide fusion (GPS, HEK-293T) (PSI 1-6); higher = more stable
Conditions: c terminus: native
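Also: lentivirally expressed fusions sorted by FACS into six bins by GFP to DsRed ratio, PSI derived from sequencing read proportions per bin multiplied by bin number.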

Variant | protein stability index
SQVSMWDQRWQDTQPLLPITDVP [H13T] | 2.94
SQVSMWDQRWQDAQPLLPITDVP [H13A] | 3.06
SQVSMWDQRWQDEQPLLPITDVP [H13E] | 3.47
SQVSMWDQRWQDNQPLLPITDVP [H13N] | 2.85
SQVSMWDQRWQDDQPLLPITDVP [H13D] | 3.17
SQVSMWDQRWQDHLPLLPITDVP [Q14L] | 2
SQVSMWDQRWQDHVPLLPITDVP [Q14V] | 2.23
SQVSMWDQRWQDHTPLLPITDVP [Q14T] | 2.48
SQVSMWDQRWQDHNPLLPITDVP [Q14N] | 2.89
SQVSMWDQRWQDHFPLLPITDVP [Q14F] | 2.25
SQVSMWDQRWQDHEPLLPITDVP [Q14E] | 3.31
SQVSMWDQRWQDHSPLLPITDVP [Q14S] | 2.38
SQVSMWDQRWQDHMPLLPITDVP [Q14M] | 2.15
SQVSMWDQRWQDHAPLLPITDVP [Q14A] | 2.48
SQVSMWDQRWQDHGPLLPITDVP [Q14G] | 2.54
SQVSMWDQRWQDHCPLLPITDVP [Q14C] | 3.58
SQVSMWDQRWQDHIPLLPITDVP [Q14I] | 2.09
SQVSMWDQRWQDHPPLLPITDVP [Q14P] | 2.74
SQVSMWDQRWQDHYPLLPITDVP [Q14Y] | 2.06
SQVSMWDQRWQDHKPLLPITDVP [Q14K] | 2.28
SQVSMWDQRWQDHRPLLPITDVP [Q14R] | 1.86
SQVSMWDQRWQDHHPLLPITDVP [Q14H] | 2.67
SQVSMWDQRWQDHWPLLPITDVP [Q14W] | 2.23
SQVSMWDQRWQDHDPLLPITDVP [Q14D] | 2.74
SQVSMSDQRWQDHQPLLPITDVP [W6S] | 3.08

Variant | protein stability index
SQVSMVDQRWQDHQPLLPITDVP [W6V] | 3.01
SQVSMTDQRWQDHQPLLPITDVP [W6T] | 4.02
SQVSMYDQRWQDHQPLLPITDVP [W6Y] | 2.09
SQVSMWDQRWQKHQPLLPITDVP [D12K] | 1.71
SQVSMWDQRWQLHQPLLPITDVP [D12L] | 2.44
SQVSMWDQRWQRHQPLLPITDVP [D12R] | 1.34
SQVSMWDQRWQSHQPLLPITDVP [D12S] | 2.1
SQVSMWDQRWQWHQPLLPITDVP [D12W] | 1.24
SQVSMWDQRWQYHQPLLPITDVP [D12Y] | 3.2
SQVSMWDQRWQQHQPLLPITDVP [D12Q] | 2.06
SQVSMWDQRWQFHQPLLPITDVP [D12F] | 1.8
SQVSMWDQRWQIHQPLLPITDVP [D12I] | 1.75
SQVSMWDQRWQHHQPLLPITDVP [D12H] | 1.64
SQVSMWDQRWQAHQPLLPITDVP [D12A] | 2.31
SQVSMWDQRWQEHQPLLPITDVP [D12E] | 2.15
SQVSMWDQRWQTHQPLLPITDVP [D12T] | 2.59
SQVSMWDQRWQMHQPLLPITDVP [D12M] | 1.85
SQVSMWDQRWQVHQPLLPITDVP [D12V] | 3.1
SQVSMWDQRWQNHQPLLPITDVP [D12N] | 2.17
SQVSMWDQRWQCHQPLLPITDVP [D12C] | 1.56
SQVSMWDQRWQPHQPLLPITDVP [D12P] | 1.78
SQVSMWDQRRQDHQPLLPITDVP [W10R] | 3.03
SQVSMWDQRKQDHQPLLPITDVP [W10K] | 3.75
SQVSMWDQRYQDHQPLLPITDVP [W10Y] | 2.55
SQVSMWDQRVQDHQPLLPITDVP [W10V] | 2.17

Variant | protein stability index
SQVSMWDQRFQDHQPLLPITDVP [W10F] | 2.31
SQVSMWDQRHQDHQPLLPITDVP [W10H] | 3.14
SQVSMWDQRDQDHQPLLPITDVP [W10D] | 3.44
SQVSMWDQRCQDHQPLLPITDVP [W10C] | 3.12
SQVSMWDQRNQDHQPLLPITDVP [W10N] | 3.39
SQVSMWDQRQQDHQPLLPITDVP [W10Q] | 3.29
SQVSMWDQRIQDHQPLLPITDVP [W10I] | 2.81
SQVSMWDQRLQDHQPLLPITDVP [W10L] | 2.51
SQVSMWDQRSQDHQPLLPITDVP [W10S] | 3.37
SQVSMWDQRPQDHQPLLPITDVP [W10P] | 3.68
SQVSMWDQRMQDHQPLLPITDVP [W10M] | 2.4
SQVSMWDQRWEDHQPLLPITDVP [Q11E] | 3.38
SQVSMWDQRWKDHQPLLPITDVP [Q11K] | 2.87
SQVSMWDQRWMDHQPLLPITDVP [Q11M] | 2.06
SQVSMWDQRWVDHQPLLPITDVP [Q11V] | 2.25
SQVSMWDQRWHDHQPLLPITDVP [Q11H] | 1.67
SQVSMWDQRWSDHQPLLPITDVP [Q11S] | 2.37
SQVSMWDQRWCDHQPLLPITDVP [Q11C] | 1.92
SQVSMWDQRWADHQPLLPITDVP [Q11A] | 1.84
SQVSMWDQRWTDHQPLLPITDVP [Q11T] | 2.29
SQVSMWDQRWNDHQPLLPITDVP [Q11N] | 2.74
SQVSMWDQRWGDHQPLLPITDVP [Q11G] | 1.77
SQVSMWDQRWIDHQPLLPITDVP [Q11I] | 3.03
SQVSMWDQRWPDHQPLLPITDVP [Q11P] | 2.1
SQVSMWDQRWDDHQPLLPITDVP [Q11D] | 2.38

Variant | protein stability index
SQVSMWDQRWRDHQPLLPITDVP [Q11R] | 3.7
SQVSMWDQRWFDHQPLLPITDVP [Q11F] | 1.68
SQVSMWDQRWWDHQPLLPITDVP [Q11W] | 1.77
SQVSMWDQRWLDHQPLLPITDVP [Q11L] | 1.59
SQVSMWDQRWQDHQPRLPITDVP [L16R] | 2.61
SQVSMWDQRWQDHQPGLPITDVP [L16G] | 3.07
SQVSMWDQRWQDHQPTLPITDVP [L16T] | 2.92
SQVSMWDQRWQDHQPKLPITDVP [L16K] | 3.08
SQVSMWDQRWQDHQPQLPITDVP [L16Q] | 2.73
SQVSMWDQRWQDHQPDLPITDVP [L16D] | 3.42
SQVSMWDQRWQDHQPNLPITDVP [L16N] | 3.54
SQVSMWDQRWQDHQPCLPITDVP [L16C] | 2.83
SQVSMWDQRWQDHQPYLPITDVP [L16Y] | 3.06
SQVSMWDQRWQDHQPELPITDVP [L16E] | 3.38
SQVSMWDQRWQDHQPVLPITDVP [L16V] | 2.54
SQVSMWDQRWQDHQPFLPITDVP [L16F] | 3.4
SQVSMWDQRWQDHQPPLPITDVP [L16P] | 2.38
SQVSMWDQRWQDHQPALPITDVP [L16A] | 2.95
SQVSMWDQRWQDHQPSLPITDVP [L16S] | 2.98
SQVSMWDQRWQDHQPILPITDVP [L16I] | 2.55
SQVSMWDQRWQDHQPMLPITDVP [L16M] | 2.53
SQVSMWDQRWQDHQPWLPITDVP [L16W] | 2.23
